Data published in publication PMC10808355.
Each block holds one substance with its values, some of them ahead of it.

Columns and labels:
[1] = molecular target: Chaetomium thermophilum 80S ribosome (Ct80S) (C. thermophilum (endogenous in C. thermophilum)); assay: cryo-EM structure; 400 nM C. thermophilum 80S ribosomes (with random nascent chains) mixed with full-length CtMAP2 (66 µM final), 30 min at RT, then vitrified
[2] = molecular target: Chaetomium thermophilum 80S ribosome (Ct80S) (C. thermophilum (endogenous in C. thermophilum)); assay: cryo-EM structure; 400 nM C. thermophilum 80S ribosomes mixed with CtMAP2∆N (66 µM final), 30 min at RT, then vitrified; particles separated by translocation state (rotated, non-rotated)
[3] = molecular target: Human 80S ribosome, non-translating (Hs80S) (human (endogenous in HeLa)) (UniProt P62750); assay: cryo-EM structure; 200 nM non-translating H. sapiens 80S ribosomes mixed with HsMAP2 (59 µM final), 30 min at RT, then vitrified

percent of purified ribosomes that accommodate MAP2 [1]: 100%
Substance: Chaetomium thermophilum methionine aminopeptidase 2, full length (CtMAP2) (enzyme)

fold of the percentage in the A-site, against the full-length CtMAP2 dataset [2]: 4 fold | percent of 80S ribosomes with CtMAP2∆N at the PTE [2]: 70%
Substance: CtMAP2(∆N1-73), autoproteolysis product of C. thermophilum MAP2 without the N-terminal extension (domain or fragment)

percent of purified ribosomes that accommodate MAP2 [3]: 100%
Substance: Human methionine aminopeptidase 2 (HsMAP2) (from UniProt P50579 1-478) (enzyme)
